Assay results: patent US20220289850 (published 2022)

T1: human integrin avb8 (human)
T1 chain 1: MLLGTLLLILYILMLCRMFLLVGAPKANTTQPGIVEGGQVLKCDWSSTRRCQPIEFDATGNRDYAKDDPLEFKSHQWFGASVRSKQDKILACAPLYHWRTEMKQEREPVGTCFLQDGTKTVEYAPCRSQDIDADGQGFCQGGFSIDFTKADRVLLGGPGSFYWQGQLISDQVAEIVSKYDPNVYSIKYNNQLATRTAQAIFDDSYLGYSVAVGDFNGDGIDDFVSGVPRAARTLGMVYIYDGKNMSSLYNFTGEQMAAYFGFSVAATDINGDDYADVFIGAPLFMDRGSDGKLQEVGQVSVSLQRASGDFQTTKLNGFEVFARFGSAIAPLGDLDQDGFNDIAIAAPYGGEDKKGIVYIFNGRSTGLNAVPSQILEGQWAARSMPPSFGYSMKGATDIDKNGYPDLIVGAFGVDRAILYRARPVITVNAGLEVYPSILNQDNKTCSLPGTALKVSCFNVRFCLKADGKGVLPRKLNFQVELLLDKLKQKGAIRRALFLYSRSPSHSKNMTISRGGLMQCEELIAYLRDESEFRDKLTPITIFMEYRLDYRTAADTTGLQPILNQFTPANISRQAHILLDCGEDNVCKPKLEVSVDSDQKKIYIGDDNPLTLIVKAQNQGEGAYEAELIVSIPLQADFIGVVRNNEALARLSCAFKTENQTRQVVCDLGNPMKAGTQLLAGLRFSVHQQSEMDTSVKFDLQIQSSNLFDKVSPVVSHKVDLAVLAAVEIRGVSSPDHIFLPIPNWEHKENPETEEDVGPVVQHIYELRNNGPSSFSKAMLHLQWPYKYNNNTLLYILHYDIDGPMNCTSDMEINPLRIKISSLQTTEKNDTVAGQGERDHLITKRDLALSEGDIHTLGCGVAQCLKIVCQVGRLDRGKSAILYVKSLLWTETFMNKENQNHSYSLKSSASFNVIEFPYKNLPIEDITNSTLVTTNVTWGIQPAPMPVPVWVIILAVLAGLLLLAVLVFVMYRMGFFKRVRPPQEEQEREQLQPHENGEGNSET
T1 chain 2: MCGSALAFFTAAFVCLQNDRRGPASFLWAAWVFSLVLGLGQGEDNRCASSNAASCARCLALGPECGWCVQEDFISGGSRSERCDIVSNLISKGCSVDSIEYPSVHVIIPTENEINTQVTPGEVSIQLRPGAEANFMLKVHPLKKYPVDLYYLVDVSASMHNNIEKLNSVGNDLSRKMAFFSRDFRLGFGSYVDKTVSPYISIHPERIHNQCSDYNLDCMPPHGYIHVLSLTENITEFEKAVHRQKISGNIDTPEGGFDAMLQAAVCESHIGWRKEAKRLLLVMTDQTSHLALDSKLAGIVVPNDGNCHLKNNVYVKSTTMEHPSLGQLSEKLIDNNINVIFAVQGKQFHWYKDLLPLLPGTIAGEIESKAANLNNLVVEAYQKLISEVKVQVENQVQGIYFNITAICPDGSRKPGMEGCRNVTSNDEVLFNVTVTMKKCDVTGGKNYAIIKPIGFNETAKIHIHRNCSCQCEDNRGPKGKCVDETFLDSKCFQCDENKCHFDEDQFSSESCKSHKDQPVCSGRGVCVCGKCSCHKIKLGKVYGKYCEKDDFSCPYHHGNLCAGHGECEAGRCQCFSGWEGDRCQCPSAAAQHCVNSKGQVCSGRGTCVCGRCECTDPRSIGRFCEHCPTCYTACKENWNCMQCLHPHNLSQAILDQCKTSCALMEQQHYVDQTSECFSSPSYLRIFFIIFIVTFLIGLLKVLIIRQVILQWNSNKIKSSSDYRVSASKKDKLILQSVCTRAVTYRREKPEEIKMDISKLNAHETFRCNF

B1: Mouse hybridoma ADWA-11 Fab (antibody, V domains shown)
VH: EVQLQQSGAELVRPGAFVKLSCKASGFNIKDYYMNWVLQRPEQGLEWIGWIDPDNGNTIYDPKFQGKASITADTSSNTAYLQLSSLTSEDTAVYYCARRLLMDYWGQGTSVTVSS
VL: DIVMTQAAPSVPVTPGESVSISCRSTKSLLHFNGNTYLFWFLQRPGQSPQRLIYYMSNLASGVPDRFSGRGSGTDFTLRISRVEAEDVGVYYCMQSLEYPFTFGTGTKLEIK
B2: ADWA11 VH05/VK01 (VH05-2_VK01) Fab (antibody, V domains shown)
VH: EVQLVESGGGLVQPGGSLRLSCAASGFNIKDYYMNWVRQAPGKGLEWVGWIDPDNGNTIYDPKFQGRFTISADTSKNSAYLQMNSLRAEDTAVYYCARRLLMDYWGQGTLVTVSS
VL: DIQMTQSPSSLSASVGDRVTITCRSTKSLLHFNGNTYLFWYQQKPGKAPKRLIYYMSNLASGVPSRFSGSGSGTDFTLTISSLQPEDFATYYCMQSLEYPFTFGQGTKVEIK

Target: T1, human integrin avb8
Experiment: SPR

Binder	Kd [nM]
B1	0.536
B2	< 0.1
